The sequences below were run on MS2 coat protein (assay: apparent KD of MS2 coat protein; higher = weaker reporter binding). Conditions: Eterna round: R107; input ligand: theophylline 20 uM.
Method: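 RNA-MaP round R107: designed RNA switches with theophylline, tryptophan, arginine or FMN aptamers are transcribed on-chip within common flanks. They are titrated with SNAP-549-labelled MS2 coat protein in RNA-MaP buffer (100 mM Tris pH 7.5, 80 mM KCl, 4 mM MgCl2), without ligand or with the indicated ligand. Median apparent KD per design.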

With “CGUGAUCCCUGUGAUACCAGAAGUACAUGAGGAUCACCCAUGUCAAACACAAAACCAAGCUUCCCUUGGCAGCAUAGUCGUUAAG [Esmaenbiza]” as the sequence, how does the “apparent KD of MS2 coat protein” value read?
The value was 240 nM.

How did the “apparent KD of MS2 coat protein” value turn out when “UGAACAUGAGGAUCACCCAUGUAGUCAGAUACCAGACACUGCAUGGUCCCUUGGCAGCUGAAGAGCGUUUGCCAAAUAACGUUCA [Theo A SS t4]” was run?
Its value is 223 nM.

How did the “apparent KD of MS2 coat protein” value turn out when “CUCAUCCACGCGGCCGCCACUAUAUUGUGGUGUGAGUGUGACGUAUUACAUGAGGAUCACCCAUGUAGGACCGGGCGUGGAUGAG [#06 Exclusion Tryptophan B]” was run?
Its value is 51.3 nM.

With “AGCAGUACAACAGAUACCAGACUUUUAAUGCCUCUAAUUACAUGAGGAUCACCCAUGUUUGUCCCUUGGCAGCUGUUGUACUGCA [JR_ExcTheophyB_Sub010]” as the sequence, how does the “apparent KD of MS2 coat protein” value read?
The value was 200 nM.

For “AAUAACAUGAGGAUCACCCAUGUAAGUAAACGAGGACCGGUACGGCCGCCACUCGAAUAAAUAAAGUACCGGUAAGAUCCAGGGA [Default title]”, which “apparent KD of MS2 coat protein” value is on record?
The value was 19 nM.

“AUAGUCUAGAGUGAUACCAGACAACAUGAGGAUCACCCAUGUAGCAUAUGGUUAUCAUGAGUCCCUUGGCAGCACGCAUGUAUAG [JR_ExcTheophyB_Sub012]” was tested. Which “apparent KD of MS2 coat protein” value did it give?
The value was 19.9 nM.

Which “apparent KD of MS2 coat protein” value does the source give for “UAAAUAAUCUGGGUGUAGGUAAUAACAGAUACCAGCCAGAUAACUGGCCCUUGGCAGCUGAAAACAUGAGGAUCACCCAUGUAAA [Mat - Same State Theophlline A - Mod of Eli - D19]” here?
The value was 129 nM.

“UUCGUUUGCGGAAGGAGCGACGGACAUCGGUGAACGACGGACAUGAGGAUCACCCAUGUACGUCAGGUAGGUCGCCGCUAAGAGU [Enbiceri]” was tested. Which “apparent KD of MS2 coat protein” value did it give?
The value was 13.8 nM.

With “ACACGGAAUGAUGGAUCACCUCGUGAAUCACGAGGACCGGUACGGCCGCCACUCGAAAACCGUGACCUGUACGAAAAGUGCAGGA” as the sequence, how does the “apparent KD of MS2 coat protein” value read?
Its value is 232 nM.

Which “apparent KD of MS2 coat protein” value does the source give for “AAUAAACAUGAGGAUCACCCAUGUAGGGUGCGAGGACCGGUACGGCCGCCACUCGGGUGAAAACAUGAAAAUCACCCAUGUAAAA [Mat - Exclusion - Trytophan A - D24]” here?
Its value is 192 nM.

With “AGACAUGAGGAUCACCCAUGUAGUACGGAUACCAGAUCCAGAUGUAUCCCUUGGCAGCUGUGGUACAGCGUUACAUCGCUCCUAG [Exclusion - Theophylline A (Freestyle 20)]” as the sequence, how does the “apparent KD of MS2 coat protein” value read?
The value was 24.4 nM.

“GUAUGGAAACAUACUAGGGUAUCGUGAGAUACCAGUACAGAAAUGUACCCUUGGCAGCUCGCGCAUACAUGAGGAUCACCCAUGU [Ex Theophylline A 9]” was tested. Which “apparent KD of MS2 coat protein” value did it give?
Its value is 26.9 nM.

With “AGGUGCGGCACGGCCGCCACUGCGGUGGUGUGACAUGAGGAUCACCCAUGUUGUCAUGCGGCCCUUAGGACCGGGUGGCGUGCCU [#1 Exclusion - Tryptophan B Attempt #16 (HarryS)]” as the sequence, how does the “apparent KD of MS2 coat protein” value read?
Its value is 64.4 nM.

With “GGUGGCGUGACGGAUACCAGCCACCACCGUUAGACCACAUGAGGAUCACCCAUGUUGGGUGGCCCUUGGCAGCUGUCGUGCGGCG [#1 Same State - Theophylline B Attempt #18 (HarryS)]” as the sequence, how does the “apparent KD of MS2 coat protein” value read?
The value was 250 nM.

With “UUAUUUAUAAAUGAUACCAGCCGAUUGGCCGCAAAUCCUAACAUGAGGAUCACCCAUGUCGGCCCUUGGCAGCAUUUAUGGGUUU [XTheo B #28]” as the sequence, how does the “apparent KD of MS2 coat protein” value read?
Its value is 134 nM.

With “ACUUUGUCGGGUGAUACCAGCCUCGGCACAUCUCGUGCCGAACAUGAGGAUCACCCAUGUGGCCCUUGGCAGCACAUGACAAAUC [Isredior]” as the sequence, how does the “apparent KD of MS2 coat protein” value read?
The value was 522 nM.

How did the “apparent KD of MS2 coat protein” value turn out when “ACAUGAGGAUCACCCAUGUAUUACCGGGAAGGAGCGCGUAAGGACGCAGGUAGGUCGCUCGGCGUCGUGCUGUAAAGCACGACGA [#1 Same State - Arginine A Attempt #24 (HarryS)]” was run?
The value was 18.6 nM.

How did the “apparent KD of MS2 coat protein” value turn out when “GGAACAUGAGGAUCACCCAUGUCGAGUGGUCGAGGACCGGUACGGCCGCCACUCGACAUUGCUCAUAGGUAUAGCGUGAGAACGC [Same State - Tryptophan 1]” was run?
The value was 546 nM.

“UUAAUCUAUAAUGAAAACAUUAUAGCAGAAGGAGCGUGAUAAAACACAGGUAGGUCGCUGAAGGGAACAUGAGGAUCACCCAUGU [AstrosSSArgA#12]” was tested. Which “apparent KD of MS2 coat protein” value did it give?
The value was 40.5 nM.

Same assay, conditions: Eterna round: R107; input ligand: theophylline 2 mM

With “CUCUGAGUGAUCGCUCACUCAGAGGCGGAUACCAGCGAGGUCCAUCGCCCUUGGCAGCCGAACAUGAGGAUCACCCAUGUCGGUA [#1 Same State - Theophylline A Attempt #20 (HarryS)]” as the sequence, how does the “apparent KD of MS2 coat protein” value read?
The value was 12.9 nM.

With “UUUUUUUUGGGAAGGAGCGGGAACAUGUGGAUCUCCCAUGUACAUGAGGAUCACCCAUGUACCCAGGUAGGUCGCUCAUUUUUUU [Exclusion - Arginine B]” as the sequence, how does the “apparent KD of MS2 coat protein” value read?
Its value is 37.8 nM.

How did the “apparent KD of MS2 coat protein” value turn out when “UGGCGAGAAGGAAGGAGCGUCAGCUGAGUCACAUGAGGAUCACCCAUGUCGCACAUAGUGUGACAGGUAGGUCGCCUUCUGCCCU [Beinmain]” was run?
Its value is 239 nM.

How did the “apparent KD of MS2 coat protein” value turn out when “UCGUUUGAGGCGGCCGCCACUGGUCUCAUGGUCAACAUGAGGAUCACCCAUGUAUCUUUGCCAAGCAGGACCGGGCCUCGAGCGA [#20 Exclusion Tryptophan B]” was run?
The value was 29.1 nM.

With “ACAGGAAACGGAAGGAGCGGAAUUGCAACAUGAGGAUCACCCAUGUUGAUCGUGAGUUGCUUCCAGGUAGGUCGCCGUUACCUAA [Erorve]” as the sequence, how does the “apparent KD of MS2 coat protein” value read?
The value was 44.2 nM.

For “ACAUGAGGAUCACCCAUGUACAUAAGGGAAGGAGCGCGGUGAAACGCAGGUAGGUCGCCCAUAAUAACAAUAAAUAAAUUCAUGU [LeftA1]”, which “apparent KD of MS2 coat protein” value is on record?
Its value is 19 nM.

How did the “apparent KD of MS2 coat protein” value turn out when “UCGGGCAGAGCGGCCGCCACUGUUUGGCGUGCGGAUGAAGGAACAUGAGGAUCACCCAUGUAGAUUAGGACCGGGCUUGCGGAGA [ddrmullin]” was run?
The value was 15 nM.

How did the “apparent KD of MS2 coat protein” value turn out when “ACGUAAUGCAGAAGGAGCGUCUUUUUAAAACAUGAGGAUCACCCAUGUAAUAUUUAUGGGAGACAGGUAGGUCGCUGAAGUACGA [JR_SSArginiB_Sub006]” was run?
Its value is 22.3 nM.

With “ACAUGAGGAUCACCCAUGUCAUGAGGUUCACGAGGACCGGUACGGCCGCCACUCGGGCUUCGGAUCACGGAUGUACAUGAUGAUC [kmullin1]” as the sequence, how does the “apparent KD of MS2 coat protein” value read?
The value was 123 nM.

How did the “apparent KD of MS2 coat protein” value turn out when “GGGUCAGGCGCGGCCGCCACUGCGGUGAUGUGACAUGAGGAUCACCCAUGUUGUCAUGUGGCACAUAGGACCGGGUGCCUGGCCC [#1 Exclusion - Tryptophan B Attempt #6 (HarryS)]” was run?
Its value is 33.8 nM.

With “CUCAUCCACGCGGCCGCCACUAUAUUGUGGUGUGAGUGUGACGUAUUACAUGAGGAUCACCCAUGUAGGACCGGGCGUGGAUGAG [#06 Exclusion Tryptophan B]” as the sequence, how does the “apparent KD of MS2 coat protein” value read?
Its value is 50.2 nM.

How did the “apparent KD of MS2 coat protein” value turn out when “AAUAACAUGAGGAUCACCCAUGUAAGUAAACGAGGACCGGUACGGCCGCCACUCGAAUAAAUAAAGUACCGGUAAGAUCCAGGGA [Default title]” was run?
Its value is 15.4 nM.

With “UAAAUAAUCUGGGUGUAGGUAAUAACAGAUACCAGCCAGAUAACUGGCCCUUGGCAGCUGAAAACAUGAGGAUCACCCAUGUAAA [Mat - Same State Theophlline A - Mod of Eli - D19]” as the sequence, how does the “apparent KD of MS2 coat protein” value read?
The value was 84.6 nM.

For “UUCGUUUGCGGAAGGAGCGACGGACAUCGGUGAACGACGGACAUGAGGAUCACCCAUGUACGUCAGGUAGGUCGCCGCUAAGAGU [Enbiceri]”, which “apparent KD of MS2 coat protein” value is on record?
Its value is 15.2 nM.

“ACACGGAAUGAUGGAUCACCUCGUGAAUCACGAGGACCGGUACGGCCGCCACUCGAAAACCGUGACCUGUACGAAAAGUGCAGGA” was tested. Which “apparent KD of MS2 coat protein” value did it give?
The value was 250 nM.

With “AAUAAACAUGAGGAUCACCCAUGUAGGGUGCGAGGACCGGUACGGCCGCCACUCGGGUGAAAACAUGAAAAUCACCCAUGUAAAA [Mat - Exclusion - Trytophan A - D24]” as the sequence, how does the “apparent KD of MS2 coat protein” value read?
Its value is 206 nM.

“AGGUGCGGCACGGCCGCCACUGCGGUGGUGUGACAUGAGGAUCACCCAUGUUGUCAUGCGGCCCUUAGGACCGGGUGGCGUGCCU [#1 Exclusion - Tryptophan B Attempt #16 (HarryS)]” was tested. Which “apparent KD of MS2 coat protein” value did it give?
Its value is 68.9 nM.
